{"source": "paper PMC7900238", "about": "“A meet-up of two second messengers: the c-di-AMP receptor DarB controls (p)ppGpp synthesis in Bacillus subtilis” (Nature Communications, 2021)", "molecules": {"B1": {"name": "DarB, purified, SUMO tag removed (natural protein, B. subtilis 168)", "chain": "ISLQSDQLLEATVGQFMIEADKVAHVQVGNNLEHALLVLTKTGYTAIPVLDPSYRLHGLIGTNMIMNSIFGLERIEFEKLDQITVEEVMLTDIPRLHINDPIMKGFGMVINNGFVCVENDEQVFEGIFTRRVVLKELNKHIRSLNK", "notes": "darB amplified from chromosomal DNA and cloned into pET-SUMO (pGP2972); Dimer by SEC-MALS; Apo form as made in E. coli; in some experiments preincubated or saturated with c-di-AMP (written as a condition of the assay); also called apo-DarB; c-di-AMP receptor DarB; source: E. coli Rosetta(DE3), purified (Ni-NTA; SUMO tag removed with SUMO protease)"}}, "key": {"DarB": {"target": "DarB (Bacillus subtilis, UniProt O31698)", "sequence (O31698 whole entry)": "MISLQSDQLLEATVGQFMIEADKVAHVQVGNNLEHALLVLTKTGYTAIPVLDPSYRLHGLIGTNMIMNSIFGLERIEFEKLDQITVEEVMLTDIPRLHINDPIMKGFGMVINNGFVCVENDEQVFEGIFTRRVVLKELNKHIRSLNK", "assay": "biochemical"}, "Rel": {"target": "T1, Rel (Bacillus subtilis, UniProt O54408)", "T1 construct": "gene relA; full-length (734 residues), 10xHis-SUMO fusion from plasmid pVHP186 in E. coli Rosetta(DE3), SUMO tag cleaved, RNA-free", "T1 sequence (O54408 whole entry, the tested form may be a part)": "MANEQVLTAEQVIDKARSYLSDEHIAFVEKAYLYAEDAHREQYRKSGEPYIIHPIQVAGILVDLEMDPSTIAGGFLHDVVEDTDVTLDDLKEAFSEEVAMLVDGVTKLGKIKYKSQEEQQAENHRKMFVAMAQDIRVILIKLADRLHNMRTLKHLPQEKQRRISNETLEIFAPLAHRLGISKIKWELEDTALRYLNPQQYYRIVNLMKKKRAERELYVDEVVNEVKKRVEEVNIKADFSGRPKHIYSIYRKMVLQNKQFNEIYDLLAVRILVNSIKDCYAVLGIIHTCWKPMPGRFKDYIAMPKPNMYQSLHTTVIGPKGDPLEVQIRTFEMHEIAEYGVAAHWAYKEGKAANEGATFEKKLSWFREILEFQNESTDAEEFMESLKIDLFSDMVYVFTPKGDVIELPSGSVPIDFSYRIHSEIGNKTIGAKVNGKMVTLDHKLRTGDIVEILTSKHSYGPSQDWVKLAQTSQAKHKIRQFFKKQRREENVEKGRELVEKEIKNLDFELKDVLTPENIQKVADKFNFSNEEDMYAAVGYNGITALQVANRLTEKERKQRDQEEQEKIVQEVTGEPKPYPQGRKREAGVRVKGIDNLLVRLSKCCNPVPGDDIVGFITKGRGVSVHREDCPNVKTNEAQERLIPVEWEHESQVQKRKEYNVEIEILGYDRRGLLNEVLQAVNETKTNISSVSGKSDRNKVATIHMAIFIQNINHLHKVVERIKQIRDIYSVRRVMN", "assay": "hydrolase assay, GTP formation by LC-MS/MS", "assay_type": "biochemical", "conditions": "1 mM pppGpp, 1 mM MnCl2, 5 mM Mg(OAc)2, HEPES:Polymix pH 7.5, 37 °C; without DarB"}, "[1]": {"target": "the molecule itself", "assay": "SEC-MALS; Rel^NTD and DarB alone or pre-mixed 1:1 (~1 mg/ml each) in 1× ZAP buffer (50 mM Tris-HCl, 200 mM NaCl, pH 7.5), Superdex 200 10/300GL; fractions on SDS-PAGE"}, "[2]": {"target": "Rel, full length, purified, SUMO tag removed (B. subtilis, UniProt O54408 1-734)", "sequence (O54408 whole entry)": "as the sequence (O54408 whole entry, the tested form may be a part) above", "assay": "cell-based or functional assay"}, "[3]": {"target": "T2, Rel^NTD, purified, as used in SEC-MALS and ITC (B. subtilis 168, UniProt O54408 1-391)", "T2 construct": "Rel, Bacillus subtilis 168, aa 1-391 (HYD and SYN domains); the only expression plasmid named is pGP3350 (Strep-tagged); The SEC-MALS methods speak of 'purified tag-free proteins', but no removal of the Strep tag from Rel^NTD is described; Monomer by SEC-MALS; source: E. coli Rosetta(DE3), purified (StrepTactin)", "T2 sequence (O54408 1-391)": "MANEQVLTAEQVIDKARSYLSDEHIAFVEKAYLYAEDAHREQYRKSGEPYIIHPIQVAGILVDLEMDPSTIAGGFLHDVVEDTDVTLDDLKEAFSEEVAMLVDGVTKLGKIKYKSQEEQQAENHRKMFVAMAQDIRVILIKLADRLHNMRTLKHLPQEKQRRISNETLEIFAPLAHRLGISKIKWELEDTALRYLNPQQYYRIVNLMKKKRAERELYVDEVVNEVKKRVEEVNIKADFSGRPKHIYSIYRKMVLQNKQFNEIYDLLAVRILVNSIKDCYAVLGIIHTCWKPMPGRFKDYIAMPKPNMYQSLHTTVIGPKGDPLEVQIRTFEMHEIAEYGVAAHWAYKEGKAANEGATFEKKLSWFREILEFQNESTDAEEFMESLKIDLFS", "assay": "ITC; 10 µM Rel^NTD in the cell, 100 µM DarB in the syringe, 50 mM Tris-HCl pH 8.3, 200 mM NaCl, 20 °C", "conditions": "both partners purified"}}}
{"molecule": "Nc1ncnc2c1ncn2[C@@H]1O[C@@H]2COP(=O)(O)O[C@H]3[C@@H](O)[C@H](n4cnc5c(N)ncnc54)O[C@@H]3COP(=O)(O)O[C@H]2[C@H]1O", "note": "[c-di-AMP]", "values": [{"measurement": "Kd", "setting": "DarB", "result": "~45", "unit": "nM"}]}
{"molecule": "Nc1nc2c(ncn2[C@@H]2O[C@H](COP(=O)(O)OP(=O)(O)OP(=O)(O)O)[C@@H](OP(=O)(O)OP(=O)(O)O)[C@H]2O)c(=O)[nH]1", "note": "[pppGpp]", "values": [{"measurement": "hydrolase assay, GTP formation by LC-MS/MS", "setting": "Rel", "result": "we determined the formation of GTP resulting from the hydrolysis of pppGpp"}]}
{"molecule": "B1", "values": [{"measurement": "stoichiometry N", "setting": "[1]", "result": 2}, {"measurement": "pppGpp hydrolase activity of purified Rel (0.5 µM) with DarB (5 µM), against Rel alone (8.7 pmol of GTP per pmol of Rel per minute)", "setting": "[2]", "result": 6, "unit": "fold"}, {"measurement": "pppGpp synthetase activity of purified Rel (0.5 µM) with DarB (5 µM), against Rel alone (1.1 pmol pppGpp per pmol of Rel per minute)", "setting": "[2]", "result": 3, "unit": "fold"}, {"measurement": "Kd", "setting": "[3]", "result": 650, "unit": "nM"}, {"measurement": "stoichiometry N", "setting": "[3]", "result": 1}]}
